Biological target: trimeric HA protein of A/Victoria/361/2011 (H3N2) (Influenza A virus A/Victoria/361/2011 …, UniProt A0A097PF39, strain)
Assay: negative-stain electron microscopy

B1: IgM-F045-092 (antibody, V domains shown)
VH: EVQLVESGAEVKKPGSSVKVSCRASGTFYKYAINWVRQAPGQGLEWMGGIIPFFGTTNYAQKFQGRLTITADGSTNTAYMQLDSLRSEDTAVYYCAGPSITESHYCLDCAAKDYYYGLDVWGQGTTVTVSS
VL: not shown
binding result: binds

Reference: publication PMC12041195 (Nature Communications, 2025)
